These results are taken from patent publication US20140342037A1, “NOVEL PREBIOTICS” (DSM IP ASSETS B.V., priority 2007, published 2014).

The conditions of data set [1]: cited from earlier work.
For data set [2], the system named is κ-casein in milk and GMP-protein in whey. Kind of data set: Liberation of free sialic acid from milk and whey by sialidase (RP-HPLC, DMB labelling). It counts as biochemical. The following applies: milk and whey incubated with sialidase ZJW 0.4 U/ml at room temperature (20-21° C.). An excerpt: Free sialic acid can be analyzed by means of reverse-phase HPLC, using fluorescence detection with excitation at 310 nm and emission 448 nm after labelling with DMB compound. This method was recently described in literature (M. J. Martin et al Anal. Bional. Chem., 2007, 387, 2943-29-49) and allowed fast and accurate determination of free sialic contents in samples.
Milk was reconstituted by using NILAC low heat skim milk powder (NIZO, The Netherlands); whey was obtained from a local cheddar making facility. The milk and whey samples were treated as follows: milk and whey was incubated separately with sialidase ZJW (0.4 U/ml) at room temperature (20-21° C.) and the reaction was terminated at different moments of time by heating the samples in water bath at 95° C. for 5 minutes. A series of several sialidase ZJW concentrations and incubation times were performed. The samples used for HPLC analysis need to be free from proteins. Therefore, samples were filtered with a Nanosep ultra filtration Eppendorff (10 KD) using centrifugation for 15 minutes at 14000 g. After centrifugation, the free protein supernatant was collected and diluted 100 times with milliQ water in order to measure the sialic acid in a proper range of concentrations (measuring range using RP HPLC method is 5 fmol-5 nmol of sialic acid). […]

Data set [3] can be described thus: Proteolytic (endo-protease) activity on substrates ZAAXpNA. It is filed as biochemical. The following applies: purified enzyme preparation.

For the molecule `CC(=O)N[C@H]1[C@H]([C@H](O)[C@H](O)CO)OC(O)(C(=O)O)C[C@@H]1O` (stereo partly shown) [Sialic acids, N-acetylneuraminic acid], in data set [1], the pKa result is reported as “around 2.2”.

B1: sialidase ZJW: secreted fungal sialidase from Penicillium chrysogenum (SEQ ID NO: 3), overexpressed in Aspergillus niger (protein, listed as Penicillium chrysogenum)
chain: MLSSLMYLARECSILRAISLCAILAVATPAASASVTAKHTLATNGKGLFPQYRIVALASLGNGVLLASYDGRPDGGDSPSPNSILQRRSTDGGKTWGNPTYIARGQPASSTLQQYGFSDPSYVVDSGTGKVFNFHVFSKNQGFLNSEIGNDDTDLNIVSAEVSVSTDGGLSWTTDPDHESSLPPVASADVANVGGITGMFASSGEGIQLKYGKHAGRLVQQFLGKVIQSDGSKVSQAYSVYSDDGGAIWKMGKVIGTGMDENKVVELSNGNLMLNSRPSDGSGYRKVATSTDGGETWSTPASETQLPDPGNNGAITRMYPDAAHGSANAKILLFTNANSKTSRSNGTIRYSCDDGKTWSSGAVFQSGSMSYSTVTALGDDRFGIFYEGDSNDLVYIEVSKDFIGVSC
As to B1, in data set [2] (after 4 hours), the “free sialic acid levels (concentration)” value was “approximately 220 mg/L”. Moreover, the levels of free sialic acid in data set [2] (after 20 hours of incubation) turned out to be 250 mg/L. For the same molecule, in data set [3], the “proteolytic activity on a series of substrates ZAAXpNA” value is reported as “does not show proteolytic activity”.
